For this assay, the target named is C-X-C motif chemokine receptor 4 (CXCR4) (human (endogenous in primary CD4+ T cells)) (UniProt P61073).
UniProt P61073, sequence (P61073 whole entry): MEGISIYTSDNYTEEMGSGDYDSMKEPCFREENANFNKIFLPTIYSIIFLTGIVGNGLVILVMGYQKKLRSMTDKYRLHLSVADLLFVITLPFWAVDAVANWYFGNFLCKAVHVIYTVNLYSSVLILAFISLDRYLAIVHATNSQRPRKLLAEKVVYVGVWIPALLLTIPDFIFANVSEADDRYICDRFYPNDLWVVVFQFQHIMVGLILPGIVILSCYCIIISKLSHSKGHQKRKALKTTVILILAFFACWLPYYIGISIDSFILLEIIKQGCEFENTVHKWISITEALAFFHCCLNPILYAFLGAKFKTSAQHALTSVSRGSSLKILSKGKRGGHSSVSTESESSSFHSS

Take “stromal cell-derived factor-1 (SDF-1) (from UniProt P48061 22-93) (ligand)”: the median fluorescence intensity of MitoTracker Deep Red-labelled mitochondria on CD4+ T cells after 2 h co-culture, with 20 µg/mL blocking SDF-1 Ab; flow cytometry turned out to be 21.1 and the median fluorescence intensity of MitoTracker Deep Red-labelled mitochondria on CD4+ T cells after 2 h co-culture, without SDF-1 Ab; flow cytometry is 44.8.

The record behind these values is paper PMC7504222.
